Measured values: patent US20230365675A1 (published 2023)

Experiments:
Test in all cases: FACS, mutant CD33-GFP on 293FT cells
[1] = molecular target: Mutant CD33-GFP M16 (4889AII) on 293FT cells (UniProt P20138)
[2] = molecular target: Mutant CD33-GFP M18 (353AAL) on 293FT cells (UniProt P20138)
[3] = molecular target: Mutant CD33-GFP M19 (348ATAI) on 293FT cells (UniProt P20138)
[4] = molecular target: T1, Mutant CD33-GFP M1 (W22A) on 293FT cells (UniProt P20138 18-364)
T1 construct: whole, on cells; not shown: GFP fused to CD33

[5] = molecular target: T2, Mutant CD33-GFP M2 (H45E) on 293FT cells (UniProt P20138 18-364)
T2 construct: whole, on cells; not shown: GFP fused to CD33

[6] = molecular target: T3, Mutant CD33-GFP M3 (N99A) on 293FT cells (UniProt P20138 18-364)
T3 construct: whole, on cells; not shown: GFP fused to CD33

[7] = molecular target: T4, Mutant CD33-GFP M4 (R122D) on 293FT cells (UniProt P20138 18-364)
T4 construct: whole, on cells; not shown: GFP fused to CD33

[8] = molecular target: T5, Mutant CD33-GFP M5 (AEAD), quadruple mutant, on 293FT cells (UniProt P20138 18-364)
T5 construct: whole, on cells; substitutions left empty; not shown: GFP fused to CD33

[9] = molecular target: T6, Mutant CD33-GFP M6 (F43N) on 293FT cells (UniProt P20138 18-364)
T6 construct: whole, on cells; not shown: GFP fused to CD33

[10] = molecular target: T7, Mutant CD33-GFP M7 (R98D) on 293FT cells (UniProt P20138 18-364)
T7 construct: whole, on cells; not shown: GFP fused to CD33

[11] = molecular target: T8, Mutant CD33-GFP M8 (K52A) on 293FT cells (UniProt P20138 18-364)
T8 construct: whole, on cells; not shown: GFP fused to CD33

[12] = molecular target: T9, Mutant CD33-GFP M9 (Y49, 50A) on 293FT cells (UniProt P20138 18-364)
T9 construct: whole, on cells; Read as the double mutant Y49A + Y50A; not shown: GFP fused to CD33

[13] = molecular target: T10, Mutant CD33-GFP M10 (Y127A) on 293FT cells (UniProt P20138 18-364)
T10 construct: whole, on cells; not shown: GFP fused to CD33

[14] = molecular target: T11, Mutant CD33-GFP M11 (L78T) on 293FT cells (UniProt P20138 18-364)
T11 construct: whole, on cells; not shown: GFP fused to CD33

[15] = molecular target: T12, Mutant CD33-GFP M12 (G88S) on 293FT cells (UniProt P20138 18-364)
T12 construct: whole, on cells; not shown: GFP fused to CD33

[16] = molecular target: T13, Mutant CD33-GFP M13 (R91E) on 293FT cells (UniProt P20138 18-364)
T13 construct: whole, on cells; not shown: GFP fused to CD33

[17] = molecular target: T14, Mutant CD33-GFP M14 (E170R) on 293FT cells (UniProt P20138 18-364)
T14 construct: whole, on cells; not shown: GFP fused to CD33

[18] = molecular target: T15, Mutant CD33-GFP M15 (Q171A) on 293FT cells (UniProt P20138 18-364)
T15 construct: whole, on cells; not shown: GFP fused to CD33

[19] = molecular target: T16, Mutant CD33-GFP JS23 (L23N) on 293FT cells (UniProt P20138 18-364)
T16 construct: whole, on cells; not shown: GFP fused to CD33

[20] = molecular target: T17, Mutant CD33-GFP JS24 (Q24E) on 293FT cells (UniProt P20138 18-364)
T17 construct: whole, on cells; not shown: GFP fused to CD33

[21] = molecular target: T18, Mutant CD33-GFP JS25 (V25M) on 293FT cells (UniProt P20138 18-364)
T18 construct: whole, on cells; not shown: GFP fused to CD33

[22] = molecular target: T19, Mutant CD33-GFP JS28 (S28L) on 293FT cells (UniProt P20138 18-364)
T19 construct: whole, on cells; not shown: GFP fused to CD33
T19 sequence (P20138 18-364 S28L): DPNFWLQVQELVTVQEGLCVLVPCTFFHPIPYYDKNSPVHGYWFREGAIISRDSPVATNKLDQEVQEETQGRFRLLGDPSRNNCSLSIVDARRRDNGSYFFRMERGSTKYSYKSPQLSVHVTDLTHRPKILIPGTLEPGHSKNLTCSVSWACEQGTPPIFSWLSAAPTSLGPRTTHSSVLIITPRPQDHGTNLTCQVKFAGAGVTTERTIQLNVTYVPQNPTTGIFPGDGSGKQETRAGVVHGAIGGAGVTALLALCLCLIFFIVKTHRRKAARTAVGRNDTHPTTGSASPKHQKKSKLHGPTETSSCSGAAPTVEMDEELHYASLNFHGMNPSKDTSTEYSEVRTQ

T6 sequence (P20138 18-364 F43N): as the sequence (P20138 18-364 S28L) above, with L11S, F26N counted along it
T2 sequence (P20138 18-364 H45E): as the sequence (P20138 18-364 S28L) above, with L11S, H28E counted along it
T18 sequence (P20138 18-364 V25M): as the sequence (P20138 18-364 S28L) above, with V8M, L11S counted along it
T3 sequence (P20138 18-364 N99A): as the sequence (P20138 18-364 S28L) above, with L11S, N82A counted along it
T7 sequence (P20138 18-364 R98D): as the sequence (P20138 18-364 S28L) above, with L11S, R81D counted along it
T15 sequence (P20138 18-364 Q171A): as the sequence (P20138 18-364 S28L) above, with L11S, Q154A counted along it
T12 sequence (P20138 18-364 G88S): as the sequence (P20138 18-364 S28L) above, with L11S, G71S counted along it
T14 sequence (P20138 18-364 E170R): as the sequence (P20138 18-364 S28L) above, with L11S, E153R counted along it
T13 sequence (P20138 18-364 R91E): as the sequence (P20138 18-364 S28L) above, with L11S, R74E counted along it
T1 sequence (P20138 18-364 W22A): as the sequence (P20138 18-364 S28L) above, with W5A, L11S counted along it
T5 sequence (P20138 other isoform, or with tags, fused parts or gaps mutant): as the sequence (P20138 18-364 S28L) above, with W5A, L11S, H28E, N82A, R105D counted along it
T11 sequence (P20138 18-364 L78T): as the sequence (P20138 18-364 S28L) above, with L11S, L61T counted along it
T10 sequence (P20138 18-364 Y127A): as the sequence (P20138 18-364 S28L) above, with L11S, Y110A counted along it
T8 sequence (P20138 18-364 K52A): as the sequence (P20138 18-364 S28L) above, with L11S, K35A counted along it
T16 sequence (P20138 18-364 L23N): as the sequence (P20138 18-364 S28L) above, with L6N, L11S counted along it
T9 sequence (P20138 other isoform, or with tags, fused parts or gaps mutant): as the sequence (P20138 18-364 S28L) above, with L11S, Y32A, Y33A counted along it
T17 sequence (P20138 18-364 Q24E): as the sequence (P20138 18-364 S28L) above, with Q7E, L11S counted along it
T4 sequence (P20138 18-364 R122D): as the sequence (P20138 18-364 S28L) above, with L11S, R105D counted along it

B1: hu195 (antibody, V domains shown)
VH: QVQLVQSGAEVKKPGSSVKVSCKASGYTFTDYNMHWVRQAPGQGLEWIGYIYPYNGGTGYNCIKFKSKATITADESTNTAYMELSSLRSEDTAVYYCARGRPAMDYWGQGTLVTVSS
VL: DIQMTQSPSSLSASVGDRVTITCRASESVDNYGISFMNWFQQKPGKAPKLLIYAASNQGSGVPSRFSGSGSGTDFTLTISSLQPDDFATYYCQQSKEVPWTFGQGTKVEIK
FACS binding data [1]: 97.2 | FACS binding data [2]: 99.4 | FACS binding data [3]: 99.7 | FACS binding data [4]: 99.3 | FACS binding data [5]: 99.6 | FACS binding data [6]: 99.5 | FACS binding data [7]: 99.6 | FACS binding data [8]: 0.26 | FACS binding data [9]: 99.4 | FACS binding data [10]: 98.4 | FACS binding data [11]: 99.5 | FACS binding data [12]: 94.4 | FACS binding data [13]: 92.5 | FACS binding data [14]: 86.8 | FACS binding data [15]: 98.3 | FACS binding data [16]: 98.1 | FACS binding data [17]: 98.2 | FACS binding data [18]: 97.6 | FACS binding data [19]: 99.4 | FACS binding data [20]: 72.5 | FACS binding data [21]: 99.8 | FACS binding data [22]: 99.9
